Experimental findings from patent publication US10314894B2, “Treatment of cardio-renal disease using PCSK6” (THE CLEVELAND CLINIC FOUNDATION, priority 2014, dated 2019) are described below.

The target of one experiment is T1, corin mutant S472G (Homo sapiens, UniProt Q9Y5Q5, S472G).
T1 construct: expressed in transfected cells; host or cells: HEK293
T1 sequence (Q9Y5Q5 1-1042 S472G): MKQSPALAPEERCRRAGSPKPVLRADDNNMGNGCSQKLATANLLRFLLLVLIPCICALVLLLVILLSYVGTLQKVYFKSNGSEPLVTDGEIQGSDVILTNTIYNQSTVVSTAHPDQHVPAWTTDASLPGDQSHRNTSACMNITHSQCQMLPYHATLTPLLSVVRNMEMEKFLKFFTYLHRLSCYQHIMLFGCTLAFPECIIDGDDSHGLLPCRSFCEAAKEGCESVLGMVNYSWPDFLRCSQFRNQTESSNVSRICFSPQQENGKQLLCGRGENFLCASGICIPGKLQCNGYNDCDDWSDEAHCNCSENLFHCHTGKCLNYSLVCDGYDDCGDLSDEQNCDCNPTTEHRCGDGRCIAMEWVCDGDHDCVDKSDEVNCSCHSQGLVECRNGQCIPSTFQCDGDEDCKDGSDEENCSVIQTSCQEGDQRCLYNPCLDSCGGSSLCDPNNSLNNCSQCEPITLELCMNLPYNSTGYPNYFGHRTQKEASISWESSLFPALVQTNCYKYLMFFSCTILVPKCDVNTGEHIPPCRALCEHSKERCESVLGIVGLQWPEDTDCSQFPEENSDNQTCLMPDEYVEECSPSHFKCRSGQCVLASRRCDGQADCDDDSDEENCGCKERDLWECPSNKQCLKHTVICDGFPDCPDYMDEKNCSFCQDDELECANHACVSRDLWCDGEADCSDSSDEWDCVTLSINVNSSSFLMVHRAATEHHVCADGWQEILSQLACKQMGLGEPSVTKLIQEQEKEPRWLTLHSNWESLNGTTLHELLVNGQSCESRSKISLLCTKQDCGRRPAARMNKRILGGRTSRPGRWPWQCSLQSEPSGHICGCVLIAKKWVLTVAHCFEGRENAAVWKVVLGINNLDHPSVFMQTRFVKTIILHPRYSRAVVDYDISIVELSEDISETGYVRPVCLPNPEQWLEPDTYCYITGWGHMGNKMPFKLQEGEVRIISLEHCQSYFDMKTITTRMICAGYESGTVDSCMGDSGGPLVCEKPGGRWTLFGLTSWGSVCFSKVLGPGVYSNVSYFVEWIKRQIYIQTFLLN
The experiment is described as follows: PCSK6-mediated corin activation in HEK293 cells, corin mutant S472G. The class given is cell-based. Conditions: Western, densitometry. The source says:
(§1) Plasmids expressing human corin WT and mutants R801A, S985A, T555I, Q568P, T555I/Q568P, K317E, S472G and R539C were reported previously. Dong, N. et al., J Biol Chem 289, 17909-17916 (2014); Knappe et al., J Biol Chem 278, 52363-52370 (2003); Wu et al., J Biol Chem 277, 16900-16905. (2002). Plasmids expressing human PCSK1-9 were made by cloning respective cDNAs into pcNDA3.1 vector. Recombinant corin and PCSK proteins encoded by these plasmids contained a C-terminal V5 or flag tag for protein detection in Western blotting.
(§2) HEK293 and HL-1 cells were transfected with corin or PCSK6 expression plasmids. After 48-72 h, cells were lysed in a buffer containing 25 mM Tris-HCl, pH 7.4, 150 mM NaCl, 1 mM EDTA, 1% (v/v) NP-40, and 1% (v/v) protease inhibitor cocktail. Recombinant corin and PCSK6 proteins were immunoprecipitated with an anti-V5 or anti-flag antibody. Western blotting was carried out to analyze corin expression and activation or PCSK6 expression with or without reducing agents. Percentage of corin activation (corin-p vs. corin fragments) was quantified by densitometric analysis of Western blots.

A further experiment has as its target T2, corin WT (Homo sapiens, UniProt Q9Y5Q5).
T2 construct: expressed in transfected cells; host or cells: HEK293
T2 sequence (Q9Y5Q5 1-1042): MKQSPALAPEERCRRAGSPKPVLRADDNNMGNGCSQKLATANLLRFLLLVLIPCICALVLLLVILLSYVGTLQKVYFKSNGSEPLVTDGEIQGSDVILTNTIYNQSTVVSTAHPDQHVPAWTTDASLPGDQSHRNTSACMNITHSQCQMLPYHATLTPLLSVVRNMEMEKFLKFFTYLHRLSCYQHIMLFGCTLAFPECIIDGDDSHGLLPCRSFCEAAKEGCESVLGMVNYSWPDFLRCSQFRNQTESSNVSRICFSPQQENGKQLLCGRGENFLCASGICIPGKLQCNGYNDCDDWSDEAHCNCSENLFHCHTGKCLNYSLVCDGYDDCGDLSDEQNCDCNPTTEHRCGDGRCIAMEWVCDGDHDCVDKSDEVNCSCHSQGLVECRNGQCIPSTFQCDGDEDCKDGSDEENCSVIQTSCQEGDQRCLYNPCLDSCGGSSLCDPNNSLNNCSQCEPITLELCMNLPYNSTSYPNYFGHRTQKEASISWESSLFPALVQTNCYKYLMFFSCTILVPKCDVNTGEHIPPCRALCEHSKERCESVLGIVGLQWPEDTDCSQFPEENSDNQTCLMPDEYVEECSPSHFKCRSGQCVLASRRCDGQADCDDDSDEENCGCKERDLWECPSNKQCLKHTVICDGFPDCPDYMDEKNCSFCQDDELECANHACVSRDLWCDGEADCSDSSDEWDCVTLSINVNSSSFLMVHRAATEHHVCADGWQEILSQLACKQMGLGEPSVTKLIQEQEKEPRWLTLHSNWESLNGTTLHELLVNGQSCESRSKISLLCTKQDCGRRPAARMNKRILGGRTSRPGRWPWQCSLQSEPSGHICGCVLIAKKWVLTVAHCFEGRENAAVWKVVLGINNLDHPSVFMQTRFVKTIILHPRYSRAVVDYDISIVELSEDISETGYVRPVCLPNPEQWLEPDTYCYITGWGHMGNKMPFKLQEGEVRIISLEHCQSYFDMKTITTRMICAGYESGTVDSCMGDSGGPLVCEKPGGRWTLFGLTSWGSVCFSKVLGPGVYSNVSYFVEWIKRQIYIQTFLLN
The experiment is described as follows: PCSK6-mediated corin activation in HEK293 cells, corin WT. The class given is cell-based. Conditions: Western.
From the text: as §1, §2

B1: proprotein convertase subtilisin/kexin-6 (protein, listed as Homo sapiens)
chain: MPPRAPPAPGPRPPPRAAAATDTAAGAGGAGGAGGAGGPGFRPLAPRPWRWLLLLALPAACSAPPPRPVYTNHWAVQVLGGPAEADRVAAAHGYLNLGQIGNLEDYYHFYHSKTFKRSTLSSRGPHTFLRMDPQVKWLQQQEVKRRVKRQVRSDPQALYFNDPIWSNMWYLHCGDKNSRCRSEMNVQAAWKRGYTGKNVVVTILDDGIERNHPDLAPNYDSYASYDVNGNDYDPSPRYDASNENKHGTRCAGEVAASANNSYCIVGIAYNAKIGGIRMLDGDVTDVVEAKSLGIRPNYIDIYSASWGPDDDGKTVDGPGRLAKQAFEYGIKKGRQGLGSIFVWASGNGGREGDYCSCDGYTNSIYTISVSSATENGYKPWYLEECASTLATTYSSGAFYERKIVTTDLRQRCTDGHTGTSVSAPMVAGIIALALEANSQLTWRDVQHLLVKTSRPAHLKASDWKVNGAGHKVSHFYGFGLVDAEALVVEAKKWTAVPSQHMCVAASDKRPRSIPLVQVLRTTALTSACAEHSDQRVVYLEHVVVRTSISHPRRGDLQIYLVSPSGTKSQLLAKRLLDLSNEGFTNWEFMTVHCWGEKAEGQWTLEIQDLPSQVRNPEKQGKLKEWSLILYGTAEHPYHTFSAHQSRSRMLELSAPELEPPKAALSPSQVEVPEDEEDYTAQSTPGSANILQTSVCHPECGDKGCDGPNADQCLNCVHFSLGSVKTSRKCVSVCPLGYFGDTAARRCRRCHKGCETCSSRAATQCLSCRRGFYHHQEMNTCVTLCPAGFYADESQKNCLKCHPSCKKCVDEPEKCTVCKEGFSLARGSCIPDCEPGTYFDSELIRCGECHHTCGTCVGPGREECIHCAKNFHFHDWKCVPACGEGFYPEEMPGLPHKVCRRCDENCLSCAGSSRNCSRCKTGFTQLGTSCITNHTCSNADETFCEMVKSNRLCERKLFIQFCCRTCLLAG
modifications: C-terminal FLAG tag
Take B1: the “reduction in PCSK6-mediated corin activation compared with WT corin” value with corin mutant S472G is on record as 99%. For the same molecule, the PCSK6-mediated activation cleavage entry with corin WT was “detected”.
